The record followed here is publication PMC11832932.

This experiment has as its target HSC70 (UniProt P11142). Kind of experiment: Flag IP, blot for HA-HSC70. The following applies: reference: wild type, H2O2-treated cells; sites S371.

Take “PHGDH (from UniProt O43175) S371A, H2O2-treated cells”: the “binding against the reference” value was “weaker”.
